The target of the assay is human GLP-1 receptor (Homo sapiens, UniProt P43220). Description: cAMP production assay in CHO cells expressing human GLP-1 receptor. The settings on record: Table 18; for % Max Effect: maximum activation compared to GLP-1. Format: cell-based.
human GLP-1 receptor, sequence (P43220 24-463): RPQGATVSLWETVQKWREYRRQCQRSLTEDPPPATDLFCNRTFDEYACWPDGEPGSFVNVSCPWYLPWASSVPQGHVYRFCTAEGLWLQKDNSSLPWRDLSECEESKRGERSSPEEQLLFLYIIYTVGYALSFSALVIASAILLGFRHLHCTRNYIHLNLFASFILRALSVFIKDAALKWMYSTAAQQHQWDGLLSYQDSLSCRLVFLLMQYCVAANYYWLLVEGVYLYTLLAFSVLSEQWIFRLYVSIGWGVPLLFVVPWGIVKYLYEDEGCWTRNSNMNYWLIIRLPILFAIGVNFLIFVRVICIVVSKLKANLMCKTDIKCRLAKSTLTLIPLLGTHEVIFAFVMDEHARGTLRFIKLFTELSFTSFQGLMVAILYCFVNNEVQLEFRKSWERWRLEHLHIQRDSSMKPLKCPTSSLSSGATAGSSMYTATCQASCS

Method: Low protein binding 384-well plates (Greiner) were used to perform eleven 1 in 4 serial dilutions of test compound that were made in assay medium (0.1% bovine serum albumin in Hanks Balanced Salt Solution (GIBCO or Sigma), containing 0.5 mM IBMX (Sigma)). All sample dilutions were made in duplicate. […] Cells were then re-suspended in assay buffer at the optimized concentration of 1×10^5 cells/mL and dispensed at 5 uL per well to black shallow-well u-bottom 384-well plates (Corning). 5 μL of test compound was transferred from the dilution plate to the cell plate and incubated at room temperature for 30 minutes. cAMP levels were measured the cAMP dynamic 2 HTRF kit (Cisbio), following the two step protocol as per manufacturer's recommendations. Briefly, anti-cAMP cryptate (donor fluorophore) and cAMP-d2 (acceptor fluorophore) were made up separately by diluting each 1/20 in conjugate & lysis buffer provided in the kit. 5 uL of anti-cAMP cryptate was added to all wells of the assay plate and 5 uL of cAMP-d2 added to all wells except non-specific binding wells, to which only conjugate and lysis buffer was added. […] Data was transformed to % Delta F as described in manufacturer's guidelines and analyzed by unconstrained 4-parameter logistic fit of data, curve mid-point to determine EC50.

B1: HS9_DSB7_L26H: HS9_DSB7 with peptide point mutation L26H; SEQ ID NO: 468 (protein)
chain: HGEGTFTSDLSKQMEEECVRLFIEWHKNGGPSSGAPPPGCGGGGGSGGGGSGGGGSADIQMTQSPSSLSASVGDRVTITCQASQDVKTAVAWYQQKPGKAPKLLIYSASYRYTGVPSRFSGSGSGTDFTFTISSLQPEDIATYYCQQRYSLWRTFGQGTKLEIK
Regarding B1, the “% Max Effect” value worked out at 87%.

B2: HS9_DSB7_L26G: HS9_DSB7 with peptide point mutation L26G; SEQ ID NO: 469 (protein)
chain: HGEGTFTSDLSKQMEEECVRLFIEWGKNGGPSSGAPPPGCGGGGGSGGGGSGGGGSADIQMTQSPSSLSASVGDRVTITCQASQDVKTAVAWYQQKPGKAPKLLIYSASYRYTGVPSRFSGSGSGTDFTFTISSLQPEDIATYYCQQRYSLWRTFGQGTKLEIK
In the case of B2, the “% Max Effect” value was found to be 81%.

B3: HS9_DSB7_L26D: HS9_DSB7 with peptide point mutation L26D; SEQ ID NO: 471 (protein)
chain: HGEGTFTSDLSKQMEEECVRLFIEWDKNGGPSSGAPPPGCGGGGGSGGGGSGGGGSADIQMTQSPSSLSASVGDRVTITCQASQDVKTAVAWYQQKPGKAPKLLIYSASYRYTGVPSRFSGSGSGTDFTFTISSLQPEDIATYYCQQRYSLWRTFGQGTKLEIK
Consider B3, for which the “Potency at huGLP-1R in cAMP assay (M)” value is “Inactive” and the “% Max Effect” value is on record as “Inactive”.

B4: HS9_DSB7_L26E: HS9_DSB7 with peptide point mutation L26E; SEQ ID NO: 470 (protein)
chain: HGEGTFTSDLSKQMEEECVRLFIEWEKNGGPSSGAPPPGCGGGGGSGGGGSGGGGSADIQMTQSPSSLSASVGDRVTITCQASQDVKTAVAWYQQKPGKAPKLLIYSASYRYTGVPSRFSGSGSGTDFTFTISSLQPEDIATYYCQQRYSLWRTFGQGTKLEIK
With B4, the “Potency at huGLP-1R in cAMP assay (M)” value is “Inactive” and the “% Max Effect” value is “Inactive”.
